Tests used:
[1] = target: T1, human CTLA-4 (amino acids M1-N223) on stably transfected VI-fibroblast cells (human, UniProt P16410 36-223); experiment: ECL cell binding, VI-fibroblast/hCTLA-4 cells;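 also: antibodies bound to the cells on carbon electrode plates, detected via SULFO-TAG anti-IgG secondary (1 h, RT), electrochemiluminescence read as RLU over a concentration range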
T1 construct: also called VI-fibroblast/hCTLA-4

[2] = target: T2, soluble human CTLA-4 expressed with a C-terminal myc-myc-polyhistidine tag (human); experiment: SPR, mAb capture, 25 C
T2 construct: soluble protein; also called hCTLA-4.mmh; hCTLA4.mmh
T2 sequence (chain, as listed by the source limits assumed): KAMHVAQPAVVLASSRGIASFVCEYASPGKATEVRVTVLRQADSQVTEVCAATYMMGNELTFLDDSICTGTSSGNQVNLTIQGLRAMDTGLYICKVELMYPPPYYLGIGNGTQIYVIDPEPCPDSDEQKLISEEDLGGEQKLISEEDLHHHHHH

[3] = target: T3, recombinant hCTLA-4-mFc (human CTLA-4 extracellular domain with a C-terminal Fc portion of mouse IgG2a) (human); experiment: competition ELISA, 200 pM hCTLA-4-mFc on plate-coated hB7-1-hIgG1-6His
T3 construct: also called dimeric CTLA-4 protein
T3 sequence (chain, as listed by the source limits assumed): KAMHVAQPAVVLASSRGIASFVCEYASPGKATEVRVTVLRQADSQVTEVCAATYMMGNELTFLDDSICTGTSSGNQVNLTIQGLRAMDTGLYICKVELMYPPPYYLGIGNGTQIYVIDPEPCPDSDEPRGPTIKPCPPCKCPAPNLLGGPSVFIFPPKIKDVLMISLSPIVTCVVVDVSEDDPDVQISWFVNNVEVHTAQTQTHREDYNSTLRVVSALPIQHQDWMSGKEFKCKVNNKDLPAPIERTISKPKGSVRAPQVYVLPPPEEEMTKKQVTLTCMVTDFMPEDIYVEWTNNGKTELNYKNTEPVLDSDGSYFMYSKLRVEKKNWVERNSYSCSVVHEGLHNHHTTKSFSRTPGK

[4] = target: T3, recombinant hCTLA-4-mFc (human CTLA-4 …); experiment: competition ELISA, 400 pM hCTLA-4-mFc on plate-coated hB7-2-hIgG1-6His

T1 sequence (P16410 36-223 limits assumed): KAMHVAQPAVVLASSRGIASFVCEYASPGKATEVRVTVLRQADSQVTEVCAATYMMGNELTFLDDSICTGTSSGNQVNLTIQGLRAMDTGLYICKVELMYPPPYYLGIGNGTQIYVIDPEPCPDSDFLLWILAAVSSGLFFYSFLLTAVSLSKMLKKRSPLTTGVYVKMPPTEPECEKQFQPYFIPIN

Binder	EC50 [1]	ratio of RLU signal to parental VI-fibroblast at 0.6 nM Ab [1]	other results
H2M20375N (antibody, mouse IgG2, V domains shown, hybridoma antibody, human variable domains, mouse IgG2 Fc (H2M)) VH: QLQLQESGPGLVKPSETLSFTCTVSGGSISSNYYYWGWVRQSPGKGLEWIGSIYHTGNAYDNPSLKSRVTISVDTSKNQFSLNLNSVTAADTAIYYCARHHSSSSWWYFDVWGRGTLVIVSS VL: EIVLTQSPDTLSLSPGERATLSCRASQTVSNSHLAWYQQKPGQAPRLLIYGTSSRATGIPDRFSGSGSGTDFSLTIIRLEPDDFAVYFCQQHESSPPTFGQGAKLEIK	0.19 nM	18 ratio	–
H2M20387N (antibody, mouse IgG2, V domains shown, hybridoma antibody, human variable domains, mouse IgG2 Fc (H2M)) VH: QVQLVESGGGVVQPGRSLRLSCAASGFTFSSYGIHWVRQAPGKGLEWVAVIWYGGNNKYYADSVKGRFTISRDNSKNTLYLQMNSLRAEDTALYHCARSGNFGAFDIWGQGTMVTVSS VL: EIVLTQSPGTLSLSPGERATLSCRASQSVSSYLAWYQQKPGQAPRLLIYGASSRATGIPDRFSGSGSGTDFILTINRLEPEDFAVYYCQHYGNSPWTFGQGTKVEIK	–	3 ratio	–
H1M20372N (antibody, mouse IgG1, V domains shown, hybridoma antibody, human variable domains, mouse IgG1 Fc (H1M)) VH: EVQLVESGGGLVQPGRSLRLSCAGTGFIFDDYAMHWVRQAPGKGLEWVSGISWNSNSLGYADSVKGRFTISRDNAKKSLYLQMSSLRAEDTALYYCVKDVTRLELRGFLDYWGQGTQVTVSS VL: DIQMTQSPSSLSASVGDRVTITCRASQDIRNDLGWHQQKSGKAPKSLIYAASSLQSGAPSRFSGSGSGTEFTLTISSLQPEDSATYYCLQQNSYPPTFGQGTKVEIK	0.88 nM	14 ratio	–
H1M20393N (antibody, V domains shown, hybridoma antibody, human variable domains, mouse IgG1 Fc (H1M)) VH: DRQMVESGGGVVQPGRSLRLSCIASGFIISRYGMHWVRQAPGKGLEWVAVIWYDGRNKNYADSVKGRFTISRDNSKNTLYLEMNSLRAEDTAVYYCGRVHQFGAFDIWGQGTMVTVSS VL: not shown	7.3 nM	12 ratio	–
H1H20361N (antibody, human IgG1, V domains shown, here with human IgG1 Fc (H1H)) VH: QVQLQESGPGLVKPSQTLSLTCTVSGGSINNGGHYWTWIRQHPGKGLEWIGYIYYIGTTYYNPSLESRLSLSVDTSKNQFSLKLSSVTAADTAIYYCARSSLSVSEAFDVWGQGTMVTVSS VL: DIQMTQSPSSLSASVGDRITITCRGSQNIGSFLSWYQQRPGKAPKLLIFGAYNLQGGVPSRFSGSGSGTDFTLTISSLQPEDFATYFCQQSYSTPPITFGQGTRLEIK	–	–	Kd [2]: 32.1 nM; koff [2]: 0.00199 s⁻¹; kon [2]: 62100 M⁻¹ s⁻¹; t1/2 [2]: 5.8 min; % Blockade [3]: 73%; IC50 [3]: 69 nM; % Blockade [4]: 82%; IC50 [4]: 65 nM
H2M20361N (antibody, mouse IgG2, V domains shown, hybridoma antibody, human variable domains, mouse IgG2 Fc (H2M)) VH: QVQLQESGPGLVKPSQTLSLTCTVSGGSINNGGHYWTWIRQHPGKGLEWIGYIYYIGTTYYNPSLESRLSLSVDTSKNQFSLKLSSVTAADTAIYYCARSSLSVSEAFDVWGQGTMVTVSS VL: DIQMTQSPSSLSASVGDRITITCRGSQNIGSFLSWYQQRPGKAPKLLIFGAYNLQGGVPSRFSGSGSGTDFTLTISSLQPEDFATYFCQQSYSTPPITFGQGTRLEIK	0.32 nM	19 ratio	–
H2M20368N (antibody, mouse IgG2, V domains shown, hybridoma antibody, human variable domains, mouse IgG2 Fc (H2M)) VH: QVQLQESGPGLVRPSQTLSLTCTVSGGSISNGGYYWTWIRQNPGKGLEWIGYIYYIGTTYYNPSLESRLSLSVDTSKNQFSLKLTSVTAADTAVYYCARSSLAVSEAFDIWGQGTMVTVSS VL: DIQMTQSPSSLSASVGDRFTITCRASQSIGSFLSWYQQKPGKAPKLLIYAASSLQSGVPSRFSGSGSGTDFTLTISSLQPEDFATYYCQQSYNTPPITFGQGTRLEIK	0.26 nM	25 ratio	–
H2M20386N (antibody, mouse IgG2, V domains shown, hybridoma antibody, human variable domains, mouse IgG2 Fc (H2M)) VH: QVQLVESGGGVVQPGRSLRLSCAASGFTVNRYGIHWVRQAPGKGLEWVAVTWYDGRNKYFADSVKGRFSFSRDSSTNTLYLQMNSLRAEDTAVYYCARGGLFGYFDYWGQGTLVTVSS VL: EIVLTQSPDTLSLSPGERATLSCRASQSVAGSYLAWYQQKPGQAPRLLIYGASSRATGIPDRFSGSGSGTDFTLTISRLEPEDFAVYYCQQYGTSPWTFGQGTKVEIT	–	3 ratio	–
H1H20370N (antibody, human IgG1, V domains shown, here with human IgG1 Fc (H1H)) VH: QVQLHESGPGLVKPSQTLSLTCSVSGGSISNGGYYWSWIRQHPGQGLEWIGYIYYIGNTYYNPSLESRVTMSIDTSKNQFSLKLSSVTAADTAIYYCARQEFVPGAEYFLHWGQGILVTVSS VL: DIRMTQSPSSLSASVGDRVTITCRASQTVNTFLNWYQQKPGKAPKLLIFGASSLQSGVPSRFSGSGSGTDFTLTISGLQPEDFAIYYCQQSYSVPPITFGQGTRLEIE	–	–	Kd [2]: 3.43 nM; koff [2]: 0.000588 s⁻¹; kon [2]: 172000 M⁻¹ s⁻¹; t1/2 [2]: 19.6 min; % Blockade [3]: 95%; IC50 [3]: 0.86 nM; % Blockade [4]: 96%; IC50 [4]: 0.99 nM
H1M20370N (antibody, mouse IgG1, V domains shown, hybridoma antibody, human variable domains, mouse IgG1 Fc (H1M)) VH: QVQLHESGPGLVKPSQTLSLTCSVSGGSISNGGYYWSWIRQHPGQGLEWIGYIYYIGNTYYNPSLESRVTMSIDTSKNQFSLKLSSVTAADTAIYYCARQEFVPGAEYFLHWGQGILVTVSS VL: DIRMTQSPSSLSASVGDRVTITCRASQTVNTFLNWYQQKPGKAPKLLIFGASSLQSGVPSRFSGSGSGTDFTLTISGLQPEDFAIYYCQQSYSVPPITFGQGTRLEIE	0.22 nM	23 ratio	–
H2M20369N (antibody, mouse IgG2, V domains shown, hybridoma antibody, human variable domains, mouse IgG2 Fc (H2M)) VH: QVQLVQSGTEVKRPGASVKVSCKASGFTFTGYYIYWVRQAPGEGLEWMGWINPHSGGTKYAQKFQGRVTLTRDTSINTAYLDLISLRSDDTAVYYCARIGGGGYSSYFDYWGQGTLVTVSS VL: DIQLTQSPSSLSASVGDRVTITCRASQTISTYLNWYQQKPGNAPKLLIYAASSLQSGVPSRFSGRGSGTDFTLTISSLQPEDFATYYCQQGYTTPPITFGQGTRLEIK	0.9 nM	18 ratio	–
H2M20385N (antibody, mouse IgG2, V domains shown, hybridoma antibody, human variable domains, mouse IgG2 Fc (H2M)) VH: QVQLVQSGAEVKKPGASVKVSCKTSGYTFTNNGISWVRQVPGQGLEWMGWISPYNGNTKYAQKFQGRVTMTTDTSTTTVYMDVRSLRSDDTAVYFCARDGPITISYFGMDVWGQGTTVTVSS VL: DIQMTQSPSSLSASVGDRVTITCRASQSISTYLNWYQQKPGKAPKLLIYAASTLQSGVPSRFGGSGSGTDFTLTVSSLQPEDFATYYCQQSYSTPPITFGQGTRLEIN	5.5 nM	8 ratio	–
H2M20379N (antibody, mouse IgG2, V domains shown, hybridoma antibody, human variable domains, mouse IgG2 Fc (H2M)) VH: QVQLVESGGGVVQPGRSLRLSCAASGITFSSYGMHWVRQAPGKGLEWVALTSYDGSKKYYSDSVKGRFTISRDNSKNTLYLQMNSLRPEDTAVYYCAKDKGGDDYYGMDVWGQGTTVTVSS VL: EIVLTQSPGTLSLSPGERATLSCRASQWISSSYLAWYQQKPGQAPRLLIYGAFSRAPGIPGRFSGSGSGTDFTLTISRLEPEDFAVYYCQQYGSSPYTFGQGTKLEIN	0.092 nM	28 ratio	–
H2M20373N (antibody, mouse IgG2, V domains shown, hybridoma antibody, human variable domains, mouse IgG2 Fc (H2M)) VH: EVQLLESGGGLVQPGGSLRLSCAASGFTFSSYAMSWVRQAPGKGLEWVSDISGSGLSTYYADSVKGRFAISRDNSKNMLYLQMNRLRAEDTAVYYCAKEPSHWNGEAFDIWGQGTMVTVSS VL: DIQMTQSPSSVSASVGDRVTITCRASQDISSWLAWYQQKPGKAPKLLIYTTANLQSGVPSRFSGSGSGTDFTLTISSLQSEDFATYYCQQANSFPFTFGSGTKVDIK	0.062 nM	22 ratio	–
